Test [1] addresses T1, CTGF, endogenous human (U251 astrocytoma cell lysate; human AD brain sections) (human, UniProt P29279 27-349, limits assumed).
T1 construct: Native protein in a cell lysate, on cells or in tissue sections; Identified by LC-MS/MS against the Uniprot database; also called CCN2; connective tissue growth factor
T1 sequence (looked up): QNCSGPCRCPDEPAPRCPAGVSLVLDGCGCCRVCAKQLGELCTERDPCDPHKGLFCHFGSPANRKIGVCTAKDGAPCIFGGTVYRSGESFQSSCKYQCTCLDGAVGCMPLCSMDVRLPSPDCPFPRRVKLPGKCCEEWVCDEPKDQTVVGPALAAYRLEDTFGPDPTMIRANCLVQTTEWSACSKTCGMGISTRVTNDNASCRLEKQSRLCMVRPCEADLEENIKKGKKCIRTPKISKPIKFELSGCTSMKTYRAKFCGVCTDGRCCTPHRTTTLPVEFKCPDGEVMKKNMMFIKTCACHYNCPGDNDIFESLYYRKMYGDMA
In words: DAG-AgNP binding to cultured U251 cells, fluorescence microscopy. How it is done:
FIG. 7 is a graphical representation showing quantity of DAG-coated silver nanoparticles (DAG-AgNPs) binding to human astrocytoma U251 cells. Cultured U251 cells were incubated with DAG-AgNPs alone, in the presence of free non-labeled control peptide, or an excess of free, non-labeled DAG (both at 200 μM), for 1 hour at 37° C. Nanoparticle binding was quantified from fluorescence micrographs using ImageJ™ software. Scale bar, 20 μm.
Cell binding experiments on U251 cells and hiPSCs were with done using peptide conjugated AgNP. U251 cells were cultured in a 96-well plate. The cells were blocked with 200 μl of 10% FCS in HBSS (Hanks' Balanced Salt Solution from Gibco) for 30 min at 37° C. Following that, DAG-AgNPs (0.5 nM concentration diluted in HBSS) alone or in the presence of free non-labeled peptide (200 μM) were incubated on the cells for 1 hour at 37° C. After washing the unbound AgNP with HBSS three times, the plates were imaged with fluorescent microscopy by looking at intrinsic emission from the FAM tag on the peptide. hiPSCs were cultured in 48 well plate and similar protocol as described above was followed, with the exception that AgNP concentration for incubation was kept at 0.15 nM. Nanoparticle binding was quantified from fluorescence micrographs using ImageJ™ software.

The target in test [2] is T1, CTGF, endogenous human (U251 …). Kind of test: affinity chromatography of U251 cell lysate on biotin-DAG magnetic particles, control peptide wash, elution with 1 mM free DAG, LC-MS/MS. How it is done: For identifying DAG binding proteins, the human glioblastoma astrocytoma cell line U251 was lysed in PBS containing 200 mM n-octyl-beta-D-glucopyranoside and protease inhibitor cocktail (Roche) as described previously with slight modifications. The clarified lysates were loaded on to Sera-Mag magnetic particles (GE Healthcare Lifesciences, USA) coated with biotin-DAG, and incubated overnight with rotation at 4° C. The magnetic beads were washed with wash buffer followed by additional washing with 0.5 mM control peptide ([…]; SEQ ID NO: 103) to remove non-specifically bound proteins. The bound proteins were eluted with 1 mM free DAG peptide. The eluted factions were pooled, their protein concentration determined by using bicinchoninic acid (BCA) protein assay (Pierce) and the samples were digested using the Filter-aided Sample Preparation (FASP) method. Finally, the digested samples were dried, desalted and subjected to LC-MS/MS analysis at the Sanford Burnham Prebys Medical Discovery Institute's Proteomics Core facility. All mass spectra were analyzed with MaxQuant™ software version 1.5.0.25. The MS/MS spectra were searched against the Uniprot™ protein sequence database (version July 2014).

Primed or numbered codes have the meaning given here. Where no end group is shown, it is not given here. [ ]: non-standard residue; d: D form. Ahx = NCCCCCC(=O)O; FAM″ = fluorescein

B1: DAG-conjugated silver nanoparticles (FAM-cys-x-DAG-NH2 on AgNPs) (peptide)
peptide: {FAM″}-C[Ahx]CDAGRKQKC-NH2
modifications: also: conjugated via the added Cys thiol to maleimide-PEG on silver nanoparticles
notes: Many copies of the peptide on silver nanoparticles of about 35 nm; also called DAG-AgNP; DAG-AgNPs
B1: the binding result in test [1] is reported as “binds”.

B2: DAG peptide (CDAGRKQKC), labelled synthetic cyclic peptide (peptide)
peptide: CDAGRKQKC-NH2
modifications: not fully specified (bridges); also: fluorescein (FAM) or biotin tag at the N-terminus, described as a cyclic peptide, ring not given here
notes: also called FAM-DAG; FAM-labeled DAG
Regarding B2, in test [2], the binding result is recorded as “binds”.

The values are drawn from patent publication US20210299283A1 (SANFORD BURNHAM PREBYS MEDICAL DISCOVERY INSTITUTE, published 2021).
